Reference: IntAct's records for PubMed 9537418

B1: Merlin (Homo sapiens), P35240-3 (parent)
chain: MAGAIASRMSFSSLKRKQPKTFTVRIVTMDAEMEFNCEMKWKGKDLFDLVCRTLGLRETWFFGLQYTIKDTVAWLKMDKKVLDHDVSKEEPVTFHFLAKFYPENAEEELVQEITQHLFFLQVKKQILDEKIYCPPEASVLLASYAVQAKYGDYDPSVHKRGFLAQEELLPKRVINLYQMTPEMWEERITAWYAEHRGRARDEAEMEYLKIAQDLEMYGVNYFAIRNKKGTELLLGVDALGLHIYDPENRLTPKISFPWNEIRNISYSDKEFTIKPLDKKIDVFKFNSSKLRVNKLILQLCIGNHDLFMRRRKADSLEVQQMKAQAREEKARKQMERQRLAREKQMREEAERTRDELERRLLQMKEEATMANEALMRSEETADLLAEKAQITEEEAKLLAQKAAEAEQEMQRIKATAIRTEEEKRLMEQKVLEAEVLALKMAEESERRAKEADQLKQDLQEAREAERRAKQKLLEIATKPTYPPMNPIPAPLPPDIPSFNLIGDSLSFDFKDTDMKRLSMEIEKEKVEYMEKSKHLQEQLNELKTEIEALKLKERETALDILHNENSDRGGSSKHNTIKKPQAQGRRPICI

Variants of: B1
Conditions: with sptb2_human SPTBN1, Q01082
sptb2_human SPTBN1, Q01082, sequence (Q01082 whole entry): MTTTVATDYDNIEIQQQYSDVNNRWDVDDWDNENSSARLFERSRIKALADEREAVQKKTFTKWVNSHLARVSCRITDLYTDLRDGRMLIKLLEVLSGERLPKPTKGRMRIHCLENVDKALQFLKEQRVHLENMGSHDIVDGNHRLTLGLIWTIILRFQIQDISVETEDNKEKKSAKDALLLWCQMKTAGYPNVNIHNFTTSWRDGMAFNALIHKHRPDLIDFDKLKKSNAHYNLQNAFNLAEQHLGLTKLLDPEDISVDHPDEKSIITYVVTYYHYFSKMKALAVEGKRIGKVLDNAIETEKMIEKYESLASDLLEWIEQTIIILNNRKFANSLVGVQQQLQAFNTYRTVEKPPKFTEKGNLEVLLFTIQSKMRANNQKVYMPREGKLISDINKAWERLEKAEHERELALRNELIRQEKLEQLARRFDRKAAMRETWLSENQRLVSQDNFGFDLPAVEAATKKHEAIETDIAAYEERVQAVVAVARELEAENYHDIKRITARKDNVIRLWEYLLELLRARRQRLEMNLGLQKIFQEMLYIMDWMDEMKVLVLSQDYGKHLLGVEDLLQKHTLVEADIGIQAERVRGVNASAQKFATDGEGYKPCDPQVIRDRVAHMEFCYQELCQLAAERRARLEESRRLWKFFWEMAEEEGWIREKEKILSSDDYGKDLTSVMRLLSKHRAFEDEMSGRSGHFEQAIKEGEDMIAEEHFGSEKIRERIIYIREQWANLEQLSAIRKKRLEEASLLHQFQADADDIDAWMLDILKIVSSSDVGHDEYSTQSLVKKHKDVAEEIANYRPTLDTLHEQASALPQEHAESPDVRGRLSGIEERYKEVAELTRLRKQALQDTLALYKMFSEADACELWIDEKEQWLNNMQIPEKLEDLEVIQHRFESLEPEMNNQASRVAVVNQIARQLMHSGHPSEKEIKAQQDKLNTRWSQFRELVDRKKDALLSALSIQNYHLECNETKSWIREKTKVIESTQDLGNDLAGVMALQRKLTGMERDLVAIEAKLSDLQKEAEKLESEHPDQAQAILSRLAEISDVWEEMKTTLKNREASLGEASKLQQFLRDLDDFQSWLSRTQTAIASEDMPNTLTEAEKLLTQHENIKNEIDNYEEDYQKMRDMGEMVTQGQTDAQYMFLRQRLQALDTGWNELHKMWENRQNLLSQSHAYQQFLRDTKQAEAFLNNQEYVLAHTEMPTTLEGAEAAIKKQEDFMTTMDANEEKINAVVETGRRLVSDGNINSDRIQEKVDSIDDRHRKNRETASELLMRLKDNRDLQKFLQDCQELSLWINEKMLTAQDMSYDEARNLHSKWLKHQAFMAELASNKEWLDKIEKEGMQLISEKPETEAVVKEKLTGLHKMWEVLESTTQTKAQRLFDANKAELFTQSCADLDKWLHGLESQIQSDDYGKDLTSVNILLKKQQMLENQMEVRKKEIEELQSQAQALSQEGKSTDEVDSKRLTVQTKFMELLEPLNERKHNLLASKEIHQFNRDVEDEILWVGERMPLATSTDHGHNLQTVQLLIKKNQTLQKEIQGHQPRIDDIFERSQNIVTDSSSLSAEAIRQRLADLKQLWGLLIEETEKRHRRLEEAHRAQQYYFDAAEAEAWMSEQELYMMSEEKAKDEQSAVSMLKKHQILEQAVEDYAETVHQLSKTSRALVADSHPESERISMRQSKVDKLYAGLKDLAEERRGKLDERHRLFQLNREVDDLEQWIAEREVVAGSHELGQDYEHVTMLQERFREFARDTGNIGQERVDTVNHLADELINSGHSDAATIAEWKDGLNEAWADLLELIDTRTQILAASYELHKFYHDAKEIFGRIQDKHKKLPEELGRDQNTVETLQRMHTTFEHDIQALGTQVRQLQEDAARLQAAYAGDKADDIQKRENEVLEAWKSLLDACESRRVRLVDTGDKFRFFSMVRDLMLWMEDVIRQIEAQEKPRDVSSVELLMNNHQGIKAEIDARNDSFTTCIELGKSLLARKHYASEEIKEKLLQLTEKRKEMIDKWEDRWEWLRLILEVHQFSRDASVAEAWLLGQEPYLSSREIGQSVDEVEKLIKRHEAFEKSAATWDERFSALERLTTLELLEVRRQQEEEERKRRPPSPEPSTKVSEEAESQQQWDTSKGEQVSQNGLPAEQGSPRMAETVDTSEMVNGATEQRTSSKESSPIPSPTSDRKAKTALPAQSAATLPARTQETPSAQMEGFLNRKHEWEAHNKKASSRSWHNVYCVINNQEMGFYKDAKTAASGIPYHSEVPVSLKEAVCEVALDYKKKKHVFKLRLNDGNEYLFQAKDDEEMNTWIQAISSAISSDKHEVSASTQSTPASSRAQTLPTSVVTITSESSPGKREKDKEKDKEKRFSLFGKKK

effect of a mutation on the interaction	Variant
decreasing interaction strength	MAGAIASRMSFSSLKRKQPKTFTVRIVTMDAEMEFNCEMKWKGKDLFDLVCRTLGLRETWFFGLQYTIKDTVAWLKMDKKVLDHDVSKEEPVTFHFLAKFYPENAEEELVQEITQHLFFLQVKKQILDEKIYCPPEASVLLASYAVQAKYGDYDPSVHKRGFLAQEELLPKRVINLYQMTPEMWEERITAWYAEHRGRARDEAEMEYLKIAQDLEMYGVNYFAIRNKKGTELLLGVDALGLHIYDPENRLTPKISFPWNEIRNISYSDKEFTIKPLDKKIDVFKFNSSKLRVNKLILQLCIGNHDLFMRRRKADSLEVQQMKAQAREEKARKQMERQRLAREKQMREEAERTRDELERRLLQMKEEATMANEALMRSEETADLLAEKAQITEEEAKLLAQKAAEAEQEMQRIKATAIRTEEEKRLMEQKVLEAEVLALKMAEESERRAKEADQLKQDLQEAREAERRAKQKLLEIATKPTYPPMNPIPAPLPPDIPSFNLIGDSLSFDFKDTDMKRLSMEIEKEKVEYMEKSKHPQEQLNELKTEIEALKLKERETALDILHNENSDRGGSSKHNTIKKPQAQGRRPICI [L535P]
disrupting interaction strength	MAGAIASRMSFSSLKRKQPKTFTVRIVTMDAEMEFNCEMKWKGKDLFDLVCRTLGLRETWFFGLQYTIKDTVAWLKMDKKVLDHDVSKEEPVTFHFLAKFYPENAEEELVQEITQHLFFLQVKKQILDEKIYCPPEASVLLASYAVQAKYGDYDPSVHKRGFLAQEELLPKRVINLYQMTPEMWEERITAWYAEHRGRARDEAEMEYLKIAQDLEMYGVNYFAIRNKKGTELLLGVDALGLHIYDPENRLTPKISFPWNEIRNISYSDKEFTIKPLDKKIDVFKFNSSKLRVNKLILQLCIGNHDLFMRRRKADSLEVQQMKAQAREEKARKQMERQRLAREKQMREEAERTRDELERRLLQMKEEATMANEALMRSEETADLLAEKAQITEEEAKLLAQKAAEAEQEMQRIKATAIRTEEEKRLMEQKVLEAEVLALKMAEESERRAKEADQLKQDLQEAREAERRAKQKLLEIATKPTYPPMNPIPAPLPPDIPSFNLIGDSLSFDFKDTDMKRLSMEIEKEKVEYMEKSKHLQEPLNELKTEIEALKLKERETALDILHNENSDRGGSSKHNTIKKPQAQGRRPICI [Q538P]
decreasing interaction strength	MAGAIASRMSFSSLKRKQPKTFTVRIVTMDAEMEFNCEMKWKGKDLFDLVCRTLGLRETWFFGLQYTIKDTVAWLKMDKKVLDHDVSKEEPVTFHFLAKFYPENAEEELVQEITQHLFFLQVKKQILDEKIYCPPEASVLLASYAVQAKYGDYDPSVHKRGFLAQEELLPKRVINLYQMTPEMWEERITAWYAEHRGRARDEAEMEYLKIAQDLEMYGVNYFAIRNKKGTELLLGVDALGLHIYDPENRLTPKISFPWNEIRNISYSDKEFTIKPLDKKIDVFKFNSSKLRVNKLILQLCIGNHDLFMRRRKADSLEVQQMKAQAREEKARKQMERQRLAREKQMREEAERTRDELERRPLQMKEEATMANEALMRSEETADLLAEKAQITEEEAKLLAQKAAEAEQEMQRIKATAIRTEEEKRLMEQKVLEAEVLALKMAEESERRAKEADQLKQDLQEAREAERRAKQKLLEIATKPTYPPMNPIPAPLPPDIPSFNLIGDSLSFDFKDTDMKRLSMEIEKEKVEYMEKSKHLQEQLNELKTEIEALKLKERETALDILHNENSDRGGSSKHNTIKKPQAQGRRPICI [L360P]
